The source of these data is patent US20250101126A1 (GO THERAPEUTICS, published 2025).

Substitutions are numbered along the chain they refer to.

Assay [1] concerns the target T1, MUC4-Tn glycopeptide CTIPSTAMHTRSTAAPIPILP (SEQ ID NO:154) with O-linked GalNAc on the serine and threonine … (not fully specified; O-linked GalNAc on Ser 12 and Thr 13; N-terminal biotin (Table 6); C-terminal amide in the form described in the SPR/BLI methods).
T1 construct: Synthetic glycopeptide made by FMOC synthesis; also called MUC4 glycopeptide; Tn-glycosylated MUC4 peptide
T1 peptide: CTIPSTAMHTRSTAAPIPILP
Description: BLI (Octet), apparent affinity; peptide on biosensor; +/- error at 95% confidence; same value as Table 7.

Assay [2] has as its target T1, MUC4-Tn glycopeptide …. Description: BLI (Octet), apparent affinity; peptide on biosensor; error +/- 0.251 nM at 95% confidence (r8c5).
Assay [3] deals with MUC1-Tn. Put plainly: BLI (Octet), apparent affinity; peptide on biosensor; error +/- 5.9 µM (r8c9).
Assay [4] concerns the target T1, MUC4-Tn glycopeptide …. Put plainly: SPR (Biacore); antibody immobilized, peptide as analyte. From the text:
Antibody affinity assays can be carried out using surface plasmon resonance (e.g., using a Biacore system (Cytiva)). In a surface plasmon resonance assay, one or more antibodies can be immobilized onto a biosensor and presented with an analyte (e.g., the glyco-MUC4 peptide […]-amide (the amino acid portion of which is SEQ ID NO:154; bold and underlined residues indicate GalNAc glycosylation sites) or a negative control analyte such as un unglycosylated MUC4 peptide ([…]-amide (the amino acid portion of which is SEQ ID NO:155)). The antibodies are contacted with different concentrations of the analyte, for example concentrations of 2.5 nM, 7.4 nM, 22 nM, 66 nM and 200 nM. Affinity is measured using multi-cycle kinetics in triplicate for each analyte concentration, with 1 min association and 5 min dissociation. […] The affinity is determined by fitting the binding curve to a specific model: kinetic fit (1:1 model) or if applicable heterogenous ligand binding model.
(In general: Surface plasmon resonance follows binding to a sensor surface in real time, without labels.)

For assay [5], the target named is MUC1-Tn. Description: BLI (Octet), apparent affinity; peptide on biosensor; error +/- 7.6 µM (r10c9). (In general: Biolayer interferometry detects binding as a change in optical thickness at a sensor tip.)
In assay [6] the target is T2, MUC4-Tn(T) peptide Biotin-CTIPSTAMHTRSTAAPIPILP (SEQ ID NO:198) (GalNAc on a threonine only (by the label Tn(T); the bold/underline marking of the site is lost in the text); N-terminal biotin).
T2 construct: Singly glycosylated form of the MUC4 peptide
T2 peptide: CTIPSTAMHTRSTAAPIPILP
Put plainly: BLI (Octet), apparent affinity; peptide on biosensor; error printed as 1 pM (r10c7).

Assay [7] concerns the target T1, MUC4-Tn glycopeptide …. Put plainly: BLI (Octet), apparent affinity; peptide on biosensor; error +/- 2.32 nM (r10c5).
Assay [8] deals with T3, Tn-glycosylated MUC4 on cells (MUC4-Tn; COSMC-KO cells, cancer tissue) (UniProt Q99102 29-5412, limits assumed, truncated Tn O-glycans (GalNAc-alpha1-O-Ser/Thr), from knock-out of the COSMC chaperone or in cancer tissue).
T3 construct: whole, on cells; also called Tn-MUC4; glyco-MUC4
Put plainly: flow cytometry on T3M4 COSMC-KO (T3M4-M) cells. Here is the method:
Adherent cells were dissociated with TrypLE select (Gibco) and washed from flask surface with cell culture media (RPMI w/L-glutamine, 1% PenStrep, & 10% FBS). Cells were washed several times by centrifugation at 300*g for 5 min at 4° C. followed by resuspension in PBS with 1% BSA (PBS/1% BSA). Cells were resuspended between 5×10⁵ cells/ml to 2×10⁶ cell/ml and then distributed into a 96 well U-bottom plate. Diluted commercial antibody (0.25-2 ug/ml), or purified humanized 2D5 candidates were added to T3M4 COSMC-KO cells and incubated for 1 hr on ice. Following several washes with PBS/1% BSA, cells were incubated for 30 min on ice with a 1:1600 dilution of AlexaFluor647 conjugated F(ab)₂ goat anti-human IgG Fcγ (JacksonImmunoResearch). Cells were washed again with PBS/1% BSA and then fixed in 1% formaldehyde in PBS/1% BSA. Cells were analysed on either a 2 or 4 laser Attune NXT flow cytometer. Data was processed in FlowJo Software.

The target in assay [9] is T1, MUC4-Tn glycopeptide …. Description: BLI (Octet), MUC4 glycopeptide on biosensor.
The target of assay [10] is T1, MUC4-Tn glycopeptide …. Put plainly: BLI (Octet), apparent affinity; peptide on biosensor; error +/- 10 nM (r12c5).
Assay [11] has as its target T2, MUC4-Tn(T) peptide …. Put plainly: BLI (Octet), apparent affinity; peptide on biosensor; error +/- 66 µM (r12c7).
Assay [12] addresses MUC1-Tn. Put plainly: BLI (Octet), apparent affinity; peptide on biosensor; error +/- 3.7 µM (r12c9).

B1: 2D5.2F6.2C11 (antibody, V domains shown)
VH: QVQLQQSDAELVKPGASVRISCKAYGYTFTDHAIHWVKQKPEQGLEWLGYISPGNDDIQYNAKFKGKATLTADKSSSTAYMQLNSLTSDDSAVYFCKRSMANSFDYWGQGTTLTVSS
VL: NIMLTQSPSSLAVSAGEKVTMSCKSSQSVLYSSDQKNYLAWYQQKPGQSPKLLIYWASTRESGVPDRFTGSGSGTDFTLTISNVQAEDLAVYYCHQYLSSYTFGGGTKLEIK
notes: Murine monoclonal antibody from a hybridoma (Balb/c mice immunized with the KLH-conjugated Tn-MUC4 glycopeptide); also called mAb 2D5
Take B1: the Kd in assay [1] turned out to be 2 nM; in [2] it was 2 nM; with MUC1-Tn [3], 2900 nM; in [4], 3.96 nM.

B2: 5B8.2A11.2C7 (antibody, V domains shown)
VH: QVQLQQSDAELVKPGASVKISCKASGYTFTDHAIHWVKQKPEQGLEWIGYFSPGNGDIKYNEKFKGKATLTADRSSSTANMHLNSLTSEDSAVYFCKRSMANYFDYWGQGTTLTVSS
VL: B1 VL with L4M, A12V, Q27H, D34N, R60K, E61N, N83S
notes: Murine monoclonal antibody from a hybridoma; also called mAb 5B8
As for B2, the Kd with MUC1-Tn [5] is 2800 nM; in assay [6] it was 560 nM; in [4], 3.93 nM; in assay [7], 2.32 nM.

B3: 2D5-cAb Chimeric antibody (human Fc domain + murine variable domain) (antibody, V domains shown)
VH: B1 VH
VL: B1 VL
Turning to B3, the half-maximal effective concentration (EC50) in [8] was 0.0177 µg/mL. Further, the Kd in assay [9] worked out at 3.2 nM.

B4: 15F3.2D11.1E6 (antibody, V domains shown)
VH: B1 VH with K13E, R19K, K67R, Y106F
VL: B1 VL with Q85R
notes: Murine monoclonal antibody from a hybridoma; also called mAb 15F3
Turning to B4, the Kd amounted to 3.56 nM in assay [4], 50.2 nM in assay [10], 79000 nM in assay [11] and 2500 nM with MUC1-Tn [12].

Broadly, the EC50 is the concentration giving half of the maximal effect. Low values mean an effect from little substance, high ones a need for much substance.
